This data set has as its target RNase E NTD D303R D346R (Escherichia coli, UniProt P21513 1-529, D303R;D346R). In words: crystal structure (3.0 A); Mg2+, Zn2+; BLI: 25 mM HEPES pH 7.0, 150 mM NaCl, 100 mM KCl, 10 mM CaCl2, 0.5 mM TCEP; RNA immobilised on streptavidin sensors, protein 0-500 nM; temperature not stated. To be noted: protein: recombinant; tags: N-terminal His; chain copies: 4; hairpin, 3' single-stranded tail.

Take GUUAUAUGCCUUCUUGGAGGUAUAUAACAAAGAC (structured_RNA, 5' monophosphate; 2'-O-methyl on A33 and C34 (ompD +82, +83)) [MicC-ompD fusion]: the binding result was “binds”.
